Experimental data published in paper PMC4520562 (PLoS ONE, 2015).
Like-named read-outs stand apart in the source and are kept apart here.

What was measured:
[1] = biological target: A/Taiwan/2/2013(H6N1) hemagglutinin ectodomain, trypsin-cleaved into HA1 and HA2 (influenza A virus A/Taiwan/2/2013(H6N1)); assay: crystal structure
[2] = biological target: A/chicken/Guangdong/S1311/2010(H6N6) hemagglutinin ectodomain, trypsin-cleaved into HA1 and HA2 (influenza A virus A/chicken/Guangdong/S1311/2010(H6N6)); assay: crystal structure
[3] = biological target: GD H6 HA (Influenza A virus (A/chicken/Guangdong/S1311/2010(H6N6)), UniProt A0A067YZV9); conditions: 2 h, pH 8.0, receptor-binding site

**Q.** With “A/Taiwan/2/2013(H6N1) hemagglutinin ectodomain, trypsin-cleaved into HA1 and HA2 (domain or fragment)” as the molecule, how does the stoichiometry N [1] read?
**A.** 3

**Q.** For “A/chicken/Guangdong/S1311/2010(H6N6) hemagglutinin ectodomain, trypsin-cleaved into HA1 and HA2 (domain or fragment)”, which stoichiometry N [2] is on record?
**A.** 3

**Q.** How did the “X-ray crystal structure of complex” value ([3]; crystal soaked with 5 mM LSTa, first three sugars visible) turn out when `CC(=O)N[C@H]1[C@H](O[C@H]2[C@@H](O)[C@@H](CO)O[C@@H](O[C@H]3[C@H](O)[C@@H](O)C(O)O[C@@H]3CO)[C@@H]2O)O[C@H](CO)[C@@H](O)[C@@H]1O[C@@H]1O[C@H](CO)[C@H](O)[C@H](O[C@]2(C(=O)O)C[C@H](O)[C@@H](NC(C)=O)[C@H]([C@H](O)[C@H](O)CO)O2)[C@H]1O` (stereo partly shown) [LSTa] was run?
**A.** Gal-2 and GlcNAc-3 of the LSTa are clearly visualized in both GD and TW H6 HA

**Q.** How did the “X-ray crystal structure of complex” value ([3]; crystal soaked with 5 mM LSTc, first two sugars visible) turn out when `CC(=O)N[C@H]1[C@H](O[C@H]2[C@@H](O)[C@@H](CO)O[C@@H](O[C@H]3[C@H](O)[C@@H](O)C(O)O[C@@H]3CO)[C@@H]2O)O[C@H](CO)[C@@H](O[C@@H]2O[C@H](CO[C@]3(C(=O)O)C[C@H](O)[C@@H](NC(C)=O)[C@H]([C@H](O)[C@H](O)CO)O3)[C@H](O)[C@H](O)[C@H]2O)[C@@H]1O` (stereo partly shown) [LSTc] was run?
**A.** only the first two sugar rings are clearly visible in the complex structure of GD H6 HA-LSTc
